{
  "source": "paper PMC4134560",
  "origin": "cited, not measured here",
  "target": "p53 (Homo sapiens) (UniProt P04637)",
  "details": "cited from earlier work",
  "data": [
    {"substance": "p53 (from UniProt P04637)", "values": [
      {"measurement": "Kd", "value": "< 1", "unit": "µM"}
    ]}
  ]
}
